In patent publication US20240141072A1 one finds DMS-153 TDCC EC50, fold TDCC potency over the parental molecule DH43 and fold TDCC potency over the parental molecule DH6 data, which are given here for five molecules.

Changes are numbered by the printed parent chain. Numbers in names are those of the source.

The target in this assay is human DLL3 on DLL3-expressing tumor cell lines (human) (UniProt Q9NYJ7). The assay is described as follows: cell-based or functional assay.
Chain of human DLL3 on DLL3-expressing tumor cell lines (human) (Q9NYJ7 27-618 limits assumed): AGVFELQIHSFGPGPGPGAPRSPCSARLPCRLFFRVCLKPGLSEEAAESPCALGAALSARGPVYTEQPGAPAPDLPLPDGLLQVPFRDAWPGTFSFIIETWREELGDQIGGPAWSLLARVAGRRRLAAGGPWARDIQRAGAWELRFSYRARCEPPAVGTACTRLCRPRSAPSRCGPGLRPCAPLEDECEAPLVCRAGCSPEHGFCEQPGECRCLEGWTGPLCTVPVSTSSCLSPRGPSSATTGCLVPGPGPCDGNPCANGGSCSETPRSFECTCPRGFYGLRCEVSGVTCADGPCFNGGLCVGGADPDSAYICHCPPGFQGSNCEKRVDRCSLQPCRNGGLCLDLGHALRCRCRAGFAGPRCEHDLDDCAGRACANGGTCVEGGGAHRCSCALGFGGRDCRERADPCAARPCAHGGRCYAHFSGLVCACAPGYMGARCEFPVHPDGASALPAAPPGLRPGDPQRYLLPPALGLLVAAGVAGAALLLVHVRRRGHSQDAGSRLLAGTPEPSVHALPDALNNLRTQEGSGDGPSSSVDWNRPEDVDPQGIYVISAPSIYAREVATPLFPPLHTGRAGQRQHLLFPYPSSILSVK

B1: 2F11 anti-DLL3 trispecific protein (protein, not shown: large carriers)
chain: EVQLVESGGGLVQPGGSLTLSCVASGSVSSINAMGWYRRAPGKQRELVAGISSDGSKVYKDSVKGRFTISRDNAKNSVYLQMNSLRAEDTAVYYCYYFRTVSGSSMGYWGQGTLVTVSS
Molecule B1 displayed a DMS-153 TDCC EC50 of 49 pM.

B2: 2E05-M106Q anti-DLL3 trispecific protein (protein, not shown: large carriers)
chain: B1 chain with V28P, M34Y, K60S, M106Q, G107S
As for B2, the DMS-153 TDCC EC50 came out at 41 pM and the fold TDCC potency over the parental molecule DH43 amounted to 6.6 fold.

B3: 2E05-M106Y anti-DLL3 trispecific protein (protein, not shown: large carriers)
chain: B1 chain with V28P, M34Y, K60S, M106Y, G107S
For B3, the DMS-153 TDCC EC50 turned out to be 63 pM.

B4: 4D09-M34L anti-DLL3 trispecific protein (protein, not shown: large carriers)
chain: EVQLVESGGGLVQPGGSLTLSCAASGSSVKFLSLAWYRQAPGKKRELVAGISADGSTDYILSVKGRFTISRDNAKNSVYLQMNSLRAEDTAVYYCYAYEWTTRYTYWGQGTLVTVSS
As to B4, the DMS-153 TDCC EC50 came out at 54 pM and the fold TDCC potency over the parental molecule DH6 turned out to be 4.4 fold.

B5: 4H11-M34L anti-DLL3 trispecific protein (protein, not shown: large carriers)
chain: B4 chain with K30S, F31R, A53V, L61D, E99R, Y104L
Molecule B5 registered a DMS-153 TDCC EC50 of 130 pM.
